Measured values as given in US20250163155A1 (Bristol-Myers Squibb, published 2025).

Molecular target: T1, cynomolgus LAG-3 (cynomolgus monkey)
T1 construct: whole, on cells; also called cynomolgus LAG-3 on transfected CHO cells
Assay: flow cytometry on transfected CHO cells and activated cynomolgus T cells

- EC50: 21.5 to 34.3 nM
B1: BMS-986016 (antibody, human IgG4 S228P, kappa, V domains shown)
VH: QVQLQQWGAGLLKPSETLSLTCAVYGGSFSDYYWNWIRQPPGKGLEWIGEINHRGSTNSNPSLKSRVTLSLDTSKNQFSLKLRSVTAADTAVYYCAFGYSDYEYNWFDPWGQGTLVTVSS
VL: EIVLTQSPATLSLSPGERATLSCRASQSISSYLAWYQQKPGQAPRLLIYDASNRATGIPARFSGSGSGTDFTLTISSLEPEDFAVYYCQQRSNWPLTFGQGTNLEIKR
notes: also called anti-LAG-3 antibody
